Measurements from patent US20250333531A1 (NORDIC NANOVECTOR ASA, published 2025).

Key:
[1] = target: FcγRIIIa-V158 on Promega Jurkat effector cells (UniProt P08637 17-254, limits assumed); experiment: cell-based or functional assay
[2] = target: T1, biotinylated soluble human FcRn (human, UniProt P55899 24-297; P61769 21-119, biotinylated); experiment: ELISA: IgG coated at 1000-0.45 ng/ml, biotinylated soluble human FcRn 250 ng/ml pre-complexed with AP-streptavidin, pH 6.0, absorbance 405 nm
T1 construct: extracellular domain; Bought; Beta-2-microglobulin is not mentioned; Used as preformed complex with AP-streptavidin
T1 sequence (P55899 24-297 limits assumed, chain 1 of 2): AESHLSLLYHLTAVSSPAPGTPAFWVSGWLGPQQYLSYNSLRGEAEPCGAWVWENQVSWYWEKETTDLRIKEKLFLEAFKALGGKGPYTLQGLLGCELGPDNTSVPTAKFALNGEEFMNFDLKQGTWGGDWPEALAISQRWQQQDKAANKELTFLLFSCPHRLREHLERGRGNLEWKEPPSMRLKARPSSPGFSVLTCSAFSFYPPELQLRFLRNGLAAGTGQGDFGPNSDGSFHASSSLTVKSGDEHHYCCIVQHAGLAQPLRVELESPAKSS
T1 sequence (P61769 21-119 limits assumed, chain 2 of 2): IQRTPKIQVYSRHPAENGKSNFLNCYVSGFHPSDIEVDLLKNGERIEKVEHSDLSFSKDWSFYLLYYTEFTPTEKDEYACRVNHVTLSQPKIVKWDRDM
Experimental: (§1) Remaining surface area were blocked with PBS containing 0.05% T and 4% S for 1 h at RT. The plates were washed four times with PBS/T using a Hydrospeed™ plate washer (Tecan). […] Following washing as above with PBS/T or FcRn binding buffer (67 nM phosphate, 0.1 M NaCl, 0.05% T, pH 6.0), bound receptor was visualized by addition of phosphatase substrate (1 mg/ml in diethanolamine buffer) (Sigma Aldrich). The plates were developed for 20-30 min before the 405 nm absorption values were recorded using a TECAN Sunrise spectrophotometer (Tecan).

[3] = target: T2, biotinylated truncated soluble human FcγRI (human, UniProt P12314 16-292, biotinylated); experiment: ELISA: IgG coated at 10000-4.5 ng/ml, biotinylated truncated soluble human FcγRI 250 ng/ml pre-complexed with AP-streptavidin, absorbance 405 nm
T2 construct: extracellular domain; Bought; preformed complex with AP-streptavidin
T2 sequence (P12314 16-292): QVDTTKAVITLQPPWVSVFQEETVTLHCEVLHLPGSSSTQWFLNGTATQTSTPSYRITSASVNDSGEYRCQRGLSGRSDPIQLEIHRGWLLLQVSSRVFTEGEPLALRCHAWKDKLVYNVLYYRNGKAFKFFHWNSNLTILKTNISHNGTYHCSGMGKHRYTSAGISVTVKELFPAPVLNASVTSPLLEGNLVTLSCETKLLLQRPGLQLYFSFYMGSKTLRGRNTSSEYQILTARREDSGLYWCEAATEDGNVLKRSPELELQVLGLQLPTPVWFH
Experimental: as §1, with “96 well EIA/RIA plates (CorningCostar) were coated with 100 μl titrated amounts of IgG variants (10.000-4.5 ng/ml) diluted in PBS and incubated O/N at 4° C. Remaining” for “Remaining”, “above,” for “above with PBS/T or FcRn binding buffer (67 nM phosphate, 0.1 M NaCl, 0.05% T, pH 6.0),”, “15-20” for “20-30”

[4] = target: T3, human CD37 (human, UniProt P11049 1-281); experiment: competitive radioligand binding on Ramos cells; ratio to Ki of NNV009 (assumed 2.3)
T3 construct: whole, on cells; also called CD37 antigen
T3 sequence (looked up): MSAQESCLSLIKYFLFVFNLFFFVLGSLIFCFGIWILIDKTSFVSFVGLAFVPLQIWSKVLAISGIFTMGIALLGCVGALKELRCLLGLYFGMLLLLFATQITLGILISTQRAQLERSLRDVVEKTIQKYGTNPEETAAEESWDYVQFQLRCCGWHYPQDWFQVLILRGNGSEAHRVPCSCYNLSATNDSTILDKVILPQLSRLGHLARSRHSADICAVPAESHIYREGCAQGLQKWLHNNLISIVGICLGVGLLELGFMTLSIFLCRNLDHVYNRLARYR
Experimental: (§2) The Eppendorf LoBind tubes 1.5 mL were used to prepare dilutions (working concentrations) of Abs. As much as 0.2 mL of the cell suspension (800 000 cells/tube), after it has been cooled down for 30 min on ice, was aliquoted to glass 12×75 mm counting tubes. Each tube was pre-labeled with a code specifically determining each sample. The tubes with cells were maintained on ice for whole time course of the experiment except for the time when counted on the gamma counter. The tubes were agitated on a planetary shaker at 350 RPM, 4° C. (on ice) for 15 min. […] The tubes were placed on the planetary shaker (GL 064), on ice, and shaken for 4 hours at 350 RPM. After 3.5 hours past from the beginning of incubation, the samples were assayed on Wizard2 gamma counter using protocol “Lu-177 General” (all detectors except for the detector #3 were used). Upon completion the counting, the cells were washed with ice-cold 0.5 mL 0.5% BSAPBS three times. All the tubes were assayed on the Wizard2 gamma counter again using the same sequence and parameters as before the washing.

[5] = target: T3, human CD37; experiment: competitive radioligand binding on Ramos cells against 177Lu-NNV009 (2.7 nM), gamma counting
Experimental: as §2

Binder	average potency of the ADCC response (Example 13) [1] [nM]	efficacy (Emax) relative to NNV024, ADCC FcγRIIIa-158V reporter assay [1] [%]	EC50 (read off the curve) [2] [µg/mL]	EC50 (read off the curve) [3] [µg/mL]	Ki(NNV009)/Ki(NNV020 var.) [4] [fold]	EC50 [5] [nM]	Ki [5] [nM]
DuoHexaBody-CD37 (bispecific antibody, human IgG1, kappa) heavy 1: not shown light 1: YDMTQSPSTLSASVGDRVTITCQASQNIIDYLAWYQQKPGKAPKLLIHKASTTLASGVPSRFKGSGSGTEFTLTISSLQPDDFATYYCQQGYSNSNIDNTFGGGTKVEIKRTVAAPSVFIFPPSDEQLKSGTASVVCLLNNFYPREAKVQWKVDNALQSGNSQESVTEQDSKDSTYSLSSTLTLSKADYEKHKVYACEVTHQGLSSPVTKSFNRGEC heavy 2: not shown light 2: DVVMTQSPSTLSASVGDRVTITCQASQNIDSNLAWYQQKPGKAPKFLIYYASNLPFGVPSRFKGSGSGTEFTLTISSLQPDDFATYYCQSADVGSTYVAAFGGGTKVEIKRTVAAPSVFIFPPSDEQLKSGTASVVCLLNNFYPREAKVQWKVDNALQSGNSQESVTEQDSKDSTYSLSSTLTLSKADYEKHKVYACEVTHQGLSSPVTKSFNRGEC	0.9	53					
TCMC-NNV003 (antibody, human IgG1, kappa, TCMC chelator conjugate; sites not stated; TCMC chelator conjugate (GGG-TCMC); sites not stated, chains are those of NNV003; also called NNV003-TCMC; NNV003-GGG-TCMC) heavy: not shown light: DIVMTQSHKLLSTSVGDRVSITCKASQDVSTAVDWYQQKPGQSPKLLINWASTRHTGVPDRFTGSGSGTDYTLTISSMQAEDLALYYCRQHYSTPFTFGSGTKLEIKRTVAAPSVFIFPPSDEQLKSGTASVVCLLNNFYPREAKVQWKVDNALQSGNSQESVTEQDSKDSTYSLSSTLTLSKADYEKHKVYACEVTHQGLSSPVTKSFNRGEC			~0.06	~0.4			
rituximab (antibody, human IgG1, kappa) chain 1: not shown chain 2: QIVLSQSPAILSASPGEKVTMTCRASSSVSYIHWFQQKPGSSPKPWIYATSNLASGVPVRFSGSGSGTSYSLTISRVEAEDAATYYCQQWTSNPPTFGGGTKLEIKRTVAAPSVFIFPPSDEQLKSGTASVVCLLNNFYPREAKVQWKVDNALQSGNSQESVTEQDSKDSTYSLSSTLTLSKADYEKHKVYACEVTHQGLSSPVTKSFNRGEC	21.3	75					
NNV025 (antibody, human IgG1, kappa, Humanized IgG1 kappa; also called AH02871HC + AH02877LC; AH2871HC_2877LC) heavy: not shown light: DIQMTQSPSSLSASVGDRVTITCKASQDVSTAVDWYQQKPGKSPKLLINWASTRHTGVPSRFSGSGSGTDYTLTISSLQPEDFATYYCRQHYSTPFTFGQGTKLEIKRTVAAPSVFIFPPSDEQLKSGTASVVCLLNNFYPREAKVQWKVDNALQSGNSQESVTEQDSKDSTYSLSSTLTLSKADYEKHKVYACEVTHQGLSSPVTKSFNRGEC					4.31	1.16	0.533
AH02886 (antibody, human IgG1, kappa, V domains shown, Humanized IgG1 kappa; also called NNV027; NNV020 #5) VH: QVQLVQSGAELKKPGASVKVSCKASGYSFTDYNMYWVKQAPGQRLEWMGYIDPYNGDTTYNQKFKGRVTLTVDTSASTAYMELSSLRSEDTAVYYCARSPYGHYAMDYWGQGTLVTVSS VL: DIQMTQSPSSLSTSVGDRVTITCKASQDVSTAVDWYQQKPGKAPKLLINWASTRHTGVPSRFSGSGSGTDYTLTISSLQPEDFATYYCRQHYSTPFTFGQGTKLEIKR					4.3	1.16	0.535
AH02871 (antibody, human IgG1, kappa, V domains shown, Humanized IgG1 kappa; also called NNV026; NNV020 #1) VH: QVQLVQSGAEVVKPGASVKVSCKASGYSFTDYNMYWVKQAPGQRLEWMGYIDPYNGDTTYNQKFKGRVTITRDTSASTAYMELSSLRSEDTAVYYCARSPYGHYAMDYWGQGTLVTVSS VL: DIQMTQSPSSLSASVGDRVTITCKASQDVSTAVDWYQQKPGKAPKLLINWASTRHTGVPSRFSGSGSGTDYTLTISSMQPEDFATYYCRQHYSTPFTFGQGTKLEIKR					4.27	1.17	0.539
AH02877 (antibody, human IgG1, V domains shown, Full-length human IgG1 kappa; constant domains from NNV003; also called NNV020 #3) VH: QVQLVQSGAEVVKPGASVKVSCKASGYSFTDYNMYWVKQAPGQRLEWMGYIDPYNGDTTYNQKFKGRATLTVDTSASTAYIELSSLRSEDTAVYYCARSPYGHYAMDYWGQGTLVTVSS VL: DIQMTQSPSSLSASVGDRVTITCKASQDVSTAVDWYQQKPGKSPKLLINWASTRHTGVPSRFSGSGSGTDYTLTISSLQPEDFATYYCRQHYSTPFTFGQGTKLEIKR					5.45	0.917	0.422
AH02875 (antibody, human IgG1, V domains shown, Full-length human IgG1 kappa; also called NNV020 #2) VH: QIQLVQSGAELKKPGASVKVSCKASGYSFTDYNMYWVRQAPGQRLEWMGYIDPYNGDTTYNQKFKGRATITRDTSASTAYIELSSLRSEDTAVYYCARSPYGHYAMDYWGQGTLVTVSS VL: DIQMTQSPSSLSASVGDRVTITCKASQDVSTAVDWYQQKPGKSPKLLINWASTRHTGVPSRFSGSGSGTDYTLTISSMQPEDFATYYCRQHYSTPFTFGQGTKLEIKR					4.36	1.15	0.528
AH02879 (antibody, human IgG1, V domains shown, Full-length human IgG1 kappa; constant domains from NNV003; also called NNV020 #4) VH: QIQLVQSGAEVVKPGASVKVSCKASGYSFTDYNMYWVKQAPGQRLEWIGYIDPYNGDTTYNQKFKGRATLTRDTSASTAYMELSSLRSEDTAVYYCARSPYGHYAMDYWGQGTLVTVSS VL: DIQMTQSPSSLSTSVGDRVTITCKASQDVSTAVDWYQQKPGKSPKLLINWASTRHTGVPSRFSGSGSGTDYTLTISSMQPEDFATYYCRQHYSTPFTFGQGTKLEIKR					5.22	0.959	0.441
